Substitutions are numbered along the chain they refer to. Numbered stars: 1 amine (or outer) side, 2 acyl side, 3 side chain; on linkers, the order of the positions; unused ones are H or OH. Square brackets hold non-standard residues; d marks the D form. Side chains are listed from the residue outwards. Ends that are not written are not given here. * marks the point of attachment. C20 diacid = O=C(O)CCCCCCCCCCCCCCCCCCC(=O)*; αMePhe(2-F) = C[C@](N)(Cc1ccccc1F)C(=O)O; γGlu = O=C(O)[C@H](CCC(=O)[*:2])N[*:1]; αMeF = C[C@](N)(Cc1ccccc1)C(=O)O; αMeL = CC(C)C[C@](C)(N)C(=O)O; cTA = not defined here; AEEA = NCCOCCOCC(=O)O; Aib = CC(C)(N)C(=O)O
B1: Peptide 115 (peptide)
peptide: YXEGTXTSDYSIXLDEKAQXAFIEYLIEGGPSSGAPPPS
modifications: Aib2; αMeF6; αMeL13; K17((2-[2-(2-Amino-ethoxy)-ethoxy]-acetyl)2-(γGlu)-CO-(CH2)18-CO2H); Aib20; C-terminal NH2
B2: Peptide 140 (peptide)
peptide: B1 peptide with E16K, A21D
modifications: Aib2; αMeF6; αMeL13; K17((2-[2-(2-Amino-ethoxy)-ethoxy]-acetyl)2-(γGlu)-CO-(CH2)18-CO2H); Aib20; C-terminal NH2
B3: Peptide 171 (peptide)
peptide: B1 peptide with Y10H, E16X, A21T, E24X
modifications: Aib2; αMeF(2F)6; αMeL13; Orn16; K17((2-[2-(2-Amino-ethoxy)-ethoxy]-acetyl)2-(γGlu)-CO-(CH2)18-CO2H); Aib20; D-Glu24; C-terminal NH2
B4: Peptide 150 (peptide)
peptide: B1 peptide with A21E, E24S
modifications: Aib2; αMeF(2F)6; αMeL13; K17((2-[2-(2-Amino-ethoxy)-ethoxy]-acetyl)2-(γGlu)-CO-(CH2)18-CO2H); Aib20; C-terminal NH2
B5: Peptide 125 (peptide)
peptide: B1 peptide with E16K
modifications: Aib2; αMeF6; αMeL13; K17((2-[2-(2-Amino-ethoxy)-ethoxy]-acetyl)2-(γGlu)2-CO-(CH2)18-CO2H); Aib20; C-terminal NH2
B6: Peptide 128 (peptide)
peptide: B1 peptide with Y10H, X13L, E16K
modifications: Aib2; αMeF6; K17((2-[2-(2-Amino-ethoxy)-ethoxy]-acetyl)2-(γGlu)-CO-(CH2)18-CO2H); Aib20; C-terminal NH2
B7: Peptide 149 (peptide)
peptide: B1 peptide with A21E, E24V
modifications: Aib2; αMeF(2F)6; αMeL13; K17((2-[2-(2-Amino-ethoxy)-ethoxy]-acetyl)2-(γGlu)-CO-(CH2)18-CO2H); Aib20; C-terminal NH2
B8: Peptide 155 (peptide)
peptide: B1 peptide with Y10X, A21E
modifications: Aib2; αMeF(2F)6; cTA10; αMeL13; K17((2-[2-(2-Amino-ethoxy)-ethoxy]-acetyl)2-(γGlu)-CO-(CH2)18-CO2H); Aib20; C-terminal NH2
B9: Peptide 139 (peptide)
peptide: B1 peptide with E16K, A21T
modifications: Aib2; αMeF6; αMeL13; K17((2-[2-(2-Amino-ethoxy)-ethoxy]-acetyl)2-(γGlu)-CO-(CH2)18-CO2H); Aib20; C-terminal NH2
B10: Peptide 153 (peptide)
peptide: B1 peptide with A21E, E24H
modifications: Aib2; αMeF(2F)6; αMeL13; K17((2-[2-(2-Amino-ethoxy)-ethoxy]-acetyl)2-(γGlu)-CO-(CH2)18-CO2H); Aib20; C-terminal NH2
B11: Peptide 118 (peptide)
peptide: B1 peptide with A21E
modifications: Aib2; αMeF(2F)6; αMeL13; K17((2-[2-(2-Amino-ethoxy)-ethoxy]-acetyl)2-(γGlu)-CO-(CH2)18-CO2H); Aib20; C-terminal NH2
B12: Peptide 137 (peptide)
peptide: B1 peptide with E16K, A21X
modifications: Aib2; αMeF6; αMeL13; K17((2-[2-(2-Amino-ethoxy)-ethoxy]-acetyl)2-(γGlu)-CO-(CH2)18-CO2H); Aib20; Aad21; C-terminal NH2
B13: Peptide 129 (peptide)
peptide: B1 peptide with Y10L, X13L, E16K
modifications: Aib2; αMeF6; K17((2-[2-(2-Amino-ethoxy)-ethoxy]-acetyl)2-(γGlu)-CO-(CH2)18-CO2H); Aib20; C-terminal NH2
B14: Peptide 147 (peptide)
peptide: B1 peptide with A21E, E24X
modifications: Aib2; αMeF(2F)6; αMeL13; K17((2-[2-(2-Amino-ethoxy)-ethoxy]-acetyl)2-(γGlu)-CO-(CH2)18-CO2H); Aib20; Aad24; C-terminal NH2
B15: Peptide 143 (peptide)
peptide: B1 peptide with E16K, A21X
modifications: Aib2; αMeF6; αMeL13; K17((2-[2-(2-Amino-ethoxy)-ethoxy]-acetyl)2-(γGlu)-CO-(CH2)18-CO2H); Aib20; Aib21; C-terminal NH2
B16: Peptide 20 (peptide)
peptide: B1 peptide with X6F, E16K
modifications: Aib2; αMeL13; K17((2-[2-(2-Amino-ethoxy)-ethoxy]-acetyl)2-(γGlu)-CO-(CH2)18-CO2H); Aib20; C-terminal NH2
B17: Peptide 126 (peptide)
peptide: B1 peptide with E16K, G29A
modifications: Aib2; αMeF6; αMeL13; K17((2-[2-(2-Amino-ethoxy)-ethoxy]-acetyl)2-(γGlu)-CO-(CH2)18-CO2H); Aib20; C-terminal NH2
B18: Peptide 169 (peptide)
peptide: B1 peptide with Y10H, A21T, E24X
modifications: Aib2; αMeF(2F)6; αMeL13; K17((2-[2-(2-Amino-ethoxy)-ethoxy]-acetyl)2-(γGlu)-CO-(CH2)16-CO2H); Aib20; D-Glu24; C-terminal NH2
B19: Peptide 168 (peptide)
peptide: B1 peptide with Y10H, A21T, E24X
modifications: Aib2; αMeF(2F)6; αMeL13; K17((2-[2-(2-Amino-ethoxy)-ethoxy]-acetyl)2-(γGlu)-CO-(CH2)18-CO2H); Aib20; D-Glu24; C-terminal NH2
B20: Peptide 157 (peptide)
peptide: B1 peptide with Y10X, A21E
modifications: Aib2; αMeF(2F)6; 3Pal10; αMeL13; K17((2-[2-(2-Amino-ethoxy)-ethoxy]-acetyl)2-(γGlu)-CO-(CH2)18-CO2H); Aib20; C-terminal NH2
B21: Peptide 148 (peptide)
peptide: B1 peptide with A21E, E24A
modifications: Aib2; αMeF(2F)6; αMeL13; K17((2-[2-(2-Amino-ethoxy)-ethoxy]-acetyl)2-(γGlu)-CO-(CH2)18-CO2H); Aib20; C-terminal NH2
B22: Peptide 151 (peptide)
peptide: B1 peptide with A21E, E24P
modifications: Aib2; αMeF(2F)6; αMeL13; K17((2-[2-(2-Amino-ethoxy)-ethoxy]-acetyl)2-(γGlu)-CO-(CH2)18-CO2H); Aib20; C-terminal NH2
B23: Peptide 152 (peptide)
peptide: B1 peptide with A21E, E24X
modifications: Aib2; αMeF(2F)6; αMeL13; K17((2-[2-(2-Amino-ethoxy)-ethoxy]-acetyl)2-(γGlu)-CO-(CH2)18-CO2H); Aib20; Aib24; C-terminal NH2
B24: Peptide 144 (peptide)
peptide: B1 peptide with E16K, X20H, A21X
modifications: Aib2; αMeF6; αMeL13; K17((2-[2-(2-Amino-ethoxy)-ethoxy]-acetyl)2-(γGlu)-CO-(CH2)18-CO2H); Aib21; C-terminal NH2
B25: Peptide 154 (peptide)
peptide: Y[Aib]EGT[αMePhe(2-F)]TSDHSI[αMeL]LDEK([AEEA-AEEA-γGlu-C20 diacid])AQ[Aib]EFIEYLIEGGPSSGAPPPS-NH2
modifications: N-terminus assumed
SMILES: CC[C@H](C)[C@H](NC(=O)[C@H](CC(C)C)NC(=O)[C@H](Cc1ccc(O)cc1)NC(=O)[C@H](CCC(=O)O)NC(=O)[C@@H](NC(=O)[C@H](Cc1ccccc1)NC(=O)[C@H](CCC(=O)O)NC(=O)C(C)(C)NC(=O)[C@H](CCC(N)=O)NC(=O)[C@H](C)NC(=O)[C@H](CCCCNC(=O)COCCOCCNC(=O)COCCOCCNC(=O)CC[C@H](NC(=O)CCCCCCCCCCCCCCCCCCC(=O)O)C(=O)O)NC(=O)[C@H](CCC(=O)O)NC(=O)[C@H](CC(=O)O)NC(=O)[C@H](CC(C)C)NC(=O)[C@](C)(CC(C)C)NC(=O)[C@@H](NC(=O)[C@H](CO)NC(=O)[C@H](Cc1c[nH]cn1)NC(=O)[C@H](CC(=O)O)NC(=O)[C@H](CO)NC(=O)[C@@H](NC(=O)[C@](C)(Cc1ccccc1F)NC(=O)[C@@H](NC(=O)CNC(=O)[C@H](CCC(=O)O)NC(=O)C(C)(C)NC(=O)[C@@H](N)Cc1ccc(O)cc1)[C@@H](C)O)[C@@H](C)O)[C@@H](C)CC)[C@@H](C)CC)C(=O)N[C@@H](CCC(=O)O)C(=O)NCC(=O)NCC(=O)N1CCC[C@H]1C(=O)N[C@@H](CO)C(=O)N[C@@H](CO)C(=O)NCC(=O)N[C@@H](C)C(=O)N1CCC[C@H]1C(=O)N1CCC[C@H]1C(=O)N1CCC[C@H]1C(=O)N[C@@H](CO)C(N)=O
B26: Peptide 167 (peptide)
peptide: Y[Aib]EGT[αMePhe(2-F)]TSDHSI[αMeL]LDEK([AEEA-AEEA-γGlu-C20 diacid])AQ[Aib]TFI[dE]YLIEGGPSSG-NH2
modifications: N-terminus assumed
SMILES: CC[C@H](C)[C@H](NC(=O)[C@H](CC(C)C)NC(=O)[C@H](Cc1ccc(O)cc1)NC(=O)[C@@H](CCC(=O)O)NC(=O)[C@@H](NC(=O)[C@H](Cc1ccccc1)NC(=O)[C@@H](NC(=O)C(C)(C)NC(=O)[C@H](CCC(N)=O)NC(=O)[C@H](C)NC(=O)[C@H](CCCCNC(=O)COCCOCCNC(=O)COCCOCCNC(=O)CC[C@H](NC(=O)CCCCCCCCCCCCCCCCCCC(=O)O)C(=O)O)NC(=O)[C@H](CCC(=O)O)NC(=O)[C@H](CC(=O)O)NC(=O)[C@H](CC(C)C)NC(=O)[C@](C)(CC(C)C)NC(=O)[C@@H](NC(=O)[C@H](CO)NC(=O)[C@H](Cc1c[nH]cn1)NC(=O)[C@H](CC(=O)O)NC(=O)[C@H](CO)NC(=O)[C@@H](NC(=O)[C@](C)(Cc1ccccc1F)NC(=O)[C@@H](NC(=O)CNC(=O)[C@H](CCC(=O)O)NC(=O)C(C)(C)NC(=O)[C@@H](N)Cc1ccc(O)cc1)[C@@H](C)O)[C@@H](C)O)[C@@H](C)CC)[C@@H](C)O)[C@@H](C)CC)C(=O)N[C@@H](CCC(=O)O)C(=O)NCC(=O)NCC(=O)N1CCC[C@H]1C(=O)N[C@@H](CO)C(=O)N[C@@H](CO)C(=O)NCC(N)=O
B27: Peptide 120 (peptide)
peptide: Y[Aib][cTA]GT[αMeF]TSDYSI[αMeL]LDEK([AEEA-AEEA-γGlu-C20 diacid])AQ[Aib]AFIEYLIEGGPSSGAPPPS-NH2
modifications: reading uncertain
B28: Peptide 123 (peptide)
peptide: YXEGTXTSDYSIXLDKKAQXEFIEYLIEGGPSSG
modifications: Aib2; αMeF6; αMeL13; K17((2-[2-(2-Amino-ethoxy)-ethoxy]-acetyl)2-(γGlu)-CO-(CH2)18-CO2H); Aib20; C-terminal NH2
B29: Peptide 9 (peptide)
peptide: Y[Aib]EGTFTSDYSILLDSK([AEEA-AEEA-γGlu-C20 diacid])AQ[Aib]AFIEYLIEGGPSSGAPPPS-NH2
modifications: N-terminus assumed
SMILES: CC[C@H](C)[C@H](NC(=O)[C@H](CC(C)C)NC(=O)[C@H](Cc1ccc(O)cc1)NC(=O)[C@H](CCC(=O)O)NC(=O)[C@@H](NC(=O)[C@H](Cc1ccccc1)NC(=O)[C@H](C)NC(=O)C(C)(C)NC(=O)[C@H](CCC(N)=O)NC(=O)[C@H](C)NC(=O)[C@H](CCCCNC(=O)COCCOCCNC(=O)COCCOCCNC(=O)CC[C@H](NC(=O)CCCCCCCCCCCCCCCCCCC(=O)O)C(=O)O)NC(=O)[C@H](CO)NC(=O)[C@H](CC(=O)O)NC(=O)[C@H](CC(C)C)NC(=O)[C@H](CC(C)C)NC(=O)[C@@H](NC(=O)[C@H](CO)NC(=O)[C@H](Cc1ccc(O)cc1)NC(=O)[C@H](CC(=O)O)NC(=O)[C@H](CO)NC(=O)[C@@H](NC(=O)[C@H](Cc1ccccc1)NC(=O)[C@@H](NC(=O)CNC(=O)[C@H](CCC(=O)O)NC(=O)C(C)(C)NC(=O)[C@@H](N)Cc1ccc(O)cc1)[C@@H](C)O)[C@@H](C)O)[C@@H](C)CC)[C@@H](C)CC)C(=O)N[C@@H](CCC(=O)O)C(=O)NCC(=O)NCC(=O)N1CCC[C@H]1C(=O)N[C@@H](CO)C(=O)N[C@@H](CO)C(=O)NCC(=O)N[C@@H](C)C(=O)N1CCC[C@H]1C(=O)N1CCC[C@H]1C(=O)N1CCC[C@H]1C(=O)N[C@@H](CO)C(N)=O

Each binder was assayed against human GLP-1 receptor (human, UniProt P43220 24-463) (assay: cell-based or functional assay).

Going from B1 to B2, the “hGLPIR cAMP EC50 ratio” value rises from 0.743 to 1.16.

Compared with B3, B4 is higher in “hGLPIR cAMP EC50 ratio” value: 0.0609 for the first, 0.79 for the second.

First: B5
Second: B6
The “hGLPIR cAMP EC50 ratio” value of the first is higher: 1.31 for the first, 0.7 for the second.

First: B7
Second: B8
The “hGLPIR cAMP EC50 ratio” value of the first is higher: 0.484 for the first, 0.0978 for the second.

Compared with B9, B10 is lower in “hGLPIR cAMP EC50 ratio” value: 1.13 for the first, 0.501 for the second.

Going from B11 to B12, the “hGLPIR cAMP EC50 ratio” value rises from 1.13 to 1.25.

Going from B13 to B14, the “hGLPIR cAMP EC50 ratio” value rises from 0.543 to 1.13.

Going from B15 to B16, the “hGLPIR cAMP EC50 ratio” value falls from 0.714 to 0.577.

Compared with B17, B18 is lower in “hGLPIR cAMP EC50 ratio” value: 0.869 for the first, 0.0136 for the second.

Compared with B19, B20 is higher in “hGLPIR cAMP EC50 ratio” value: 0.0323 for the first, 1.25 for the second.

Going from B21 to B22, the “hGLPIR cAMP EC50 ratio” value falls from 0.859 to 0.0278.

First: B23
Second: B24
The “hGLPIR cAMP EC50 ratio” value of the first is lower: 0.484 for the first, 0.851 for the second.

Going from B25 to B26, the “hGLPIR cAMP EC50 ratio” value falls from 1.23 to 0.0487.

Going from B27 to B28, the “hGLPIR cAMP EC50 ratio” value rises from 0.319 to 1.58.

In the case of B29, the “hGLPIR cAMP EC50 ratio” value is reported as 0.314.
